# Data taken from patent US20220089765A1, “CD31 COMPETITORS AND USES THEREOF” (ENCEFA, priority 2019, published 2022).
# Legend:
# [1] = system: human peripheral blood mononuclear cells (PBMCs); experiment: IL-10 release from human PBMCs in vitro (ELISA); type: cell-based; conditions: PBMCs from 3 healthy donors; 10 μg/ml; LPS 500 ng/mL and interferon-γ 1B 100 ng/mL; 24 hours
# Experimental: 3 healthy volunteers (Donor 1: Donor 2: Donor 3) served as blood donors. Venous blood (5 mL) was collected into heparinized tubes and immediately processed. Briefly, blood was diluted 1/1 in pre-warmed RPMI 1640 medium. PBMCs were isolated using gradient centrifugation in Ficoll solution (Sigma; 300×g, 30 min). Isolated PBMCs were re-suspended in 1 volume of pre-warmed RPMI 1640 medium and centrifuged again (300×g, 30 min). PBMCs were re-suspended in RPMI 1640 medium supplemented with 10% human serum (Sigma-Aldrich) at a concentration of 10^7 cells per mL. Cells were seeded in 96 well microplate (100 μL per well). Test compounds (10 μg/ml), LPS (500 ng/mL) and interferon-γ 1B (100 ng/mL) were added to PBMCs culture immediately after plating. After 24 hours, cell culture supernatants were collected and frozen at −80° C. for further processing.
# IL-10 levels in cell culture supernatants were assayed using an ELISA human IL-10 kit (Ozyme®) according to the indications for use specified by the manufacturer.
# [2] = system: Experimental Autoimmune Encephalomyelitis (EAE) mouse model; experiment: EAE mouse model of multiple sclerosis, clinical score; type: in vivo, mice; conditions: 15 mg/kg iv at symptom onset (10 days after MOG injection) and at day 20
# Description: Multiple sclerosis (MS) is a progressive inflammatory and demyelinating disease of the human central nervous system (CNS) in which an important role for the immune system in the pathogenesis of the disease is suspected (Lassmann, 2008. J Neurol Sci. 274(1-2):45-7). EAE is an induced disease in mice that affects the central nervous system and constitutes a model for human MS. After a subcutaneous injection of an emulsion with a Complete Freund's Adjuvant (CFA) mixed with oligodendrocyte membrane proteins like myelin oligodendrocyte glycoprotein (MOG), an immune response starts in the periphery and, within 2 weeks, causes inflammation in the CNS. In the same time, we can observe, a progressive ascending paralysis (tail to hindlimb to forelimb). To determine whether B08 anti-CD38 antibody could have beneficial effect in this disease, we injected this antibody (15 mg/kg at symptom onset (10 days after MOG injection) and at day 20).
# Animals were anesthetized via inhalation with isoflurane (15 min). Mouse were immunized by subcutaneous injection of an emulsion containing 100 μg MOG peptide 35-55 in Complete Freund's Adjuvant and 500 μg HKMT (Heat-killed Mycobacterium tuberculosis) on day 0. Two hours later, animals received an intraperitoneal injection of 500 ng of pertussis toxin on day 0 and day 2. […]
# After immunization, animals were daily monitored for weight and clinical symptoms.
# [3] = system: dopaminergic neurons of the right substantia nigra pars compacta; experiment: 6-OHDA mouse model, number of DA (TH+) neurons; type: in vivo, mice
# Experimental: We aimed at determining whether B08 or D06 anti-CD38 antibodies were neuroprotective in vivo against neurodegeneration induced by oxidative stress. Mouse were administered with 6-hydroxydopamine (6-OHDA) in the right striatum. Since 6-OHDA is an analogue of dopamine, it is transported in dopaminergic neurons through the dopamine transporter, resulting in a specific degeneration and loss of dopaminergic neurons of the right substantia nigra pars compacta. It has been extensively used as a test system for novel symptomatic agents and for assessment of neuroprotective and neurorepair strategies (Galindo et al., 2014. In Kostrzewa (Ed.), Handbook of neurotoxicity (1st Ed., pp. 639-651). New York: Springer-Verlag). Since 6-OHDA is injected unilaterally in the right striatum, left striatum remains unaffected and each mouse is its own control.
# Two in vivo mouse models were used: the 6-OHDA mouse model and the MPTP mouse model. For the 6-OHDA mouse model, the intoxication protocol was based on the unilateral stereotaxic intrastriatal injection of 6-OHDA in the right striatum. Intracerebral or intravenous injections of treatments were made either the day before the surgical stereotaxic procedure, concomitantly with 6-OHDA during the surgical stereotaxic procedure, or two days after 6-OHDA injection. Animals were sacrificed 8 days after the surgical stereotaxic procedure.
# For unilateral 6-OHDA mouse model, animals were anesthetized using Chloral hydrate (400 mg/kg, i.p.) and placed into a stereotactic frame adapted to mice. The injection was performed using a Hamilton syringe at the following coordinates: AP: […], ML: […], DV: […] (corresponding to the atlas of Franklin and Paxinos, 1997). A total volume of 2.5 μL containing or not 5 μg of 6-OHDA diluted in PBS in the presence or the absence of test treatments was injected. The needle was left in place for 10 min after the injection before retraction.
# Mice were sacrificed by cervical dislocation, and beheaded to collect brain and blood samples. The brain was fixed in a paraformaldehyde solution (4%) during 1 day before being soaked in sucrose (30%) during 2 days and then froze at −80° C. for further analysis.
# Each brain was sliced using a freezing microtome at −30° C. The thickness of each slice was 20 μm. The slicing was done around the substantia nigra (80 slices from slice 51 to 63 according to Allen Mouse Brain).
# Slices were then washed out in PBS and incubated with anti-Tyrosine Hydroxylase to stain dopaminergic neurons (Abcam®) during 2 days, at 4° C., with agitation. Slices were incubated with corresponding secondary antibody in the presence of DAPI (Sigma Aldrich®) to stain cell's nuclei during 2 hours at room temperature, and mounted on gelatin-coated slides.
# The slices were imaged using a Nikon TE2000 U equipped with a Hamamatsu ORCE-ER camera or with a Zeiss Axio Vert.A1 equipped with an axiocam 503 mono camera. Image analysis was done using Image J software or Zen (Zeiss®).
# [4] = system: Dextran Sulfate Sodium (DSS)-induced colitis mouse model; experiment: DSS-induced colitis mouse model, colon length; type: in vivo, mice; conditions: 15 mg/kg iv when DSS treatment began; 3% DSS for 5 days
# Description: Administration of DSS causes human ulcerative colitis-like pathologies due to its toxicity to colonic epithelial cells, which results in compromised mucosal barrier function. Clinical observations similar to human pathologies, such as weight loss, diarrhea and occult blood in stool, are commonly observed in the DSS model. Moreover, diminution of the colon's length is characteristic of this model.
# Experimental colitis was induced in mice by giving drinking water ad libitum containing 3% (w/v) DSS for 5 days, while control mice received tap water only. Test compounds were intravenously administered (15 mg/kg) when DSS treatment began. Mice were sacrificed 9 days after the beginning of DSS treatment.
molecule,measurement,setting,value
"Clone B08: anti-human CD38 antibody, HCVR SEQ ID NO: 33 and LCVR SEQ ID NO: 39 (antibody, V domains shown, HCVR B08; LCVR B08) VH: EVQLVESGGSLVKPGGSLRLSCAASGFTFSNYYMNWVRQAPGKGLEWISSISGSSRSIYYADFVKGRFTISRDNAKNSLYLQMNSLRAEDTAVYYCVRSSDDYYYDYGMDVWGRGTLVTVSS VL: QSVLTQPASVSGSPGQSITISCAGTSSDVGGSYSVSWYQQHPGKAPKLMIYDDSNRPSGVSNRFSGSKSGNTASLTISGLQAEDEADYYCSSYTDYSTRVFGGGTKL",IL-10 release,[1],statistically significantly increased
same,clinical score compared with PBS-injected mice,[2],significantly reduced
same,protection of dopaminergic neurons of the right substantia nigra pars compacta,[3]; 0.1 mg/kg injected intracerebrally concomitantly with 6-OHDA,statistically significantly protected
same,neuroprotective effect in 6-OHDA model,[3]; 15 mg/kg iv one day before 6-OHDA injection,neuroprotective effect was also observed
same,neuroprotective activity in 6-OHDA model when degeneration is ongoing,[3]; 15 mg/kg iv two days after 6-OHDA injection,strong neuroprotective activity
same,diminution of the colon's length,[4],statistically significantly repressed
